According to a protein production outcome set (Wang et al. 2014):

Test: label from the status in PepcDB records

| Sequence | protein production |
| --- | --- |
| MKTTLLKTLTPELHLVQHNDIPVPSLKTCGWNTKNFPCKGHSLSVGXPQNAKQDVLWLSEVEPFKNGNAIRGGVPICYPWFGGVKQPAHGTARIRLWQLSHYYISVHKVRLEFELFSDLNIIEAKVSMVFTDKCHLTFTHYGEESAQAALHTYFNIGDINQVEVQGLPETCFNSLNQQQENVPSPRHISENVDCIYSAENMQNQILDKSFNRTIALHHHNASQFVLWNPWHKKTSGMSETGYQKMLCLETARIHHLLEFGESLSVEISLKG | not failed |
| MHYQPKQDLLNDRIILVTGASDGIGREAAMTYARYGATVILLGRNEEKLRQVASHINEETGRQPQWFILDLLTCTSENCQQLAQRIAVNYPRLDGVLHNAGLLGDVCPMSEQNPQVWQDVMQVNVNATFMLTQALLPLLLKSDAGSLVFTSSSVGRQGRANWGAYAASKFATEGMMQVLADEYQQRLRVNCINPGGTRTAMRASAFPTEDPQKLKTPADIMPLYLWLMGDDSRRKTGMTFDAQPGRKPGISQ | failed |
| MSTEDALCFTGEEYARHVREYWRGVAESDGFDSEDIRSPVVLTGLFHYDCQSGRRYPDPLLVKRYALLGLHRFNILQGTSFELDALQKFNKTMNLTSSYYITLLANEPGAIPLQKTFQVRVDERKYDTLDLTVAIARLKKDQNEAAETTKEPFVPHFCCSAVSDGVFQGPLPDWPSDDALRHDRNRFYELEKSEWQATDWISLYLELLILATDRGMFGVAQTGLPQVQILKVVIETEEENEKPLDKRLNARRAHVYITFTGLPKSPRLVEIGEHVERKAIIRRVIDDSGYLTLLGKFWSGKDTEQRSKTRQSEEKVESSQKRSRLC | failed |
| MKHVGDDVVAIISQDGKVIREIPLTGHKGNEQFTIKGKGAQYNLMEVDGERIRIKEDNSPDQVGVKMGWKSKAGDTIVCLPHKVFVEILEHHHHHH | not failed |
| MVMLNTHVVECLQACGRCAAACDYCASSCLREGHGADMARCIALDLDCAAACRLCAAMMARESEFSTHMCTLCARICEVCGDECARHEPRHCQECATACHACASACRAMARPLEHHHHHH | not failed |
| MTSNERILQPFTLPNGTELKNRLLMAPMTTCTGYFDGTVTSELVEYYRARAGSIGTIIVECCFIDDYGLAFPGAIGIDNDEKIAGLAKIAEAIKAEGSKAILQIYHGGRMVDPQLIGGRQPVAPSAIAAPREGAAMPRALSGEEVEGMIAKFGDGVRRAILAGFDGVEIHGANTYLIQQFYSPNSNQRDDEWGGSRDNRARFPLAVLDITHKMARQYADDAFIIGYRFSPEEMEVPGIRFDDTMYLLEKLAARGVDYLHFSVGATLRPSIVDTSDATPLIEKYCAMRSDTLAQVPVMGVGGVVNAADAEQGLDHGYDLIAVGRACIAYPDWASRIAAGEELELFIDSTQREALHIPEPLWRFSLVEAMIRDMSMGDAKFKPGMFVETVHDDANELVINVSLENDHIADIELAASPVQTVEFTTSFEEIRERILTANTPHVDAISGATSQSEAVKKAVAKAMLKSSKALAAEEGGNDAAPKSYDVVVVGSGGAGLAAAIQAHDEGASVLIVEKMPTIGGNTIKASAGMNAAETRFQRVKGIEDSKELFYQETLKGGHNKNNPQLLRRFVENAPQAIEWLADRGIMLNDITTTGGMSIDRTHRPRDGSAVGGYLISGLVRNITKRGIDVLLDTSVEEILMRGDEVSGVRLINDEKEVIEVQTKSIVVATGGFSANSAMVVKYRPDLEGFVTTNHKGATGSGIALLERIGAGTVDMGEIQIHPTVEQQTSYLISESIRGGGAILVNQQGNRFFNEMETRDKVSAAIIALPEHYACIVFDEHVRAKNKAADEYIAKGFVTSASSPRELAEKLGMDYHAFLATLECYNGAVEKQHDEQFGRTTALRAPINEGPFHAIRIAPGVHHTMGGVTINTDGEVLNVAQQPICGAYAAGEVVGGIHGGNRIGGNAVADIIIFGTLAGHQAAKRARG | failed |
| MSCTNRVPGILMCEIFIRANQRSYSVQARSLRLHGVATSVRLEQLFWDVLEEIAARDGMRVTQLIERLYDELVQYRGEAANFTSFLRVCCLRYQVLQAEGRIPADATVPIRSLDAQAVLRGLPANLYDSRPLG | failed |
| MDPAVFEEWMMIILVTVLIGFMGFIVWDLAKKSKAGKFGTLILFFVLGLGVLAFIIKSVVVGFLEGV | failed |
| VSEEEIRMLVAESHEAGVIDAHERDMMNRVMRLGDRTADSLMTPRNRIAWLDANAEPERNLHVMREHEFSRYPVYRGSDQDIAGVLEVKSLVTRMDGHGAQLFQNLRDTLFVSESTHAMKLLEIFREEQQSMALVVDEYGEIRGLVTISDLMGAVVGRLQSVENTDD | failed |
| MSQDRIAGIDVATNSTDISNIINEMIICIKGKQMPEVHEKAMDHLSKMIAANSRVIRDSNMLTERECVQKIMKLLSARYKKEEGKTVSDHFNELYRKLTLTKCDPHMRHSLMTHLLTITDNSDAEKAVASEDPRTQCDNLTQILVSRLNSISSSIASLNEMGVVNGNGVGAAAVTGAAAVTGAAAVTGAAAVTGAAASHSYDATQSSIGLRKQSLPNYLDATKMLPESRHDIVMSAIYSFTGVQGKYLKKDVVTGRFKLDQQNIKFLTTGQAGMLLRLSELGYYHDRVVKFSDVSTGFNAIGSMGQALISKLKEELANFHGQVAMLHDEMQRFRQASVNGIANKGKKDSGPDAGDEMTLFKLLAWYIKPLHRMQWLTKIADACQVKKGGDLASTVYDFLDNGNDMVNKLVEDFLTAICGPLVRMISKWILEGGISDMHREFFVKSIKDVGVDRLWHDKFRLRLPMLPKFVPMDMANKIFMTGKSINFLREICEEQGMMKERDELMKVMESSASQIFSYTPDTSWHAAVETCYQQTSKHVLDIMVGPHKLLDHLHGMRRYLLLGQGDFISILIENMKNELERPALDIYANDLTSMLDSALRCTNAQYDDPDILNHLDVIVQRPFNGDIGWNIISLQYIVHGPLAAMLESTMPTYKVLFKPLWRMKHMEFVLSMKIWKEQMGNAKALRTMKSEIGKASHRLNLFTSEIMHFIHQMQYYVLFEVIECNWVELQKKMQKATTLDEILEAHEKFLQTILVGCFVSNKASVEHSLEVVYENIIELEKWQSSFYKDCFKELNARKELSKIVEKSEKKGVYGLTNKMILQRDQEAKIFAEKMDIACRGLEVIATDYEKAVSTFLMSLNSSDDPNLQLFGTRLDFNEYYKKRDTNLSKPLTFEHMRMSNVFAVNSRFVICTPSTQE | failed |
| MKENEYRFIMRIFVLVSFTAVLMIAVPFLDTIAFACAFAYMTEPFFNAVRRYAGRTLGAILSILMVTVPALSLVVLILSDVVEFLNTLNVPSLVDTTIQFVNYLGLQNIAQEDLNRILSELWTFLKPTINKMAEQIYGIPLLFIKGLITVFLTYYFLKDGHRFKDAIMPHVPEVYHVQTELFIRKLNEAYKNLFVVNALTSFTVGLISIAGFWAIGLPNPVTLGALSGILTLLPIVGGWTIYMPLSLYYIAVGMYTKAILLFGFGVIFLSLAPDFAIRPRLVNHESDIHPAIALVAFLMGPLALGVTGFALGPLIMGTFDAIFRVKNGKDSIINLK | failed |
| MENRSHALLAGLFTLALLVAAALVAIWVGRDRAALKPYVIVSATSVSGLSAQSTVRYQGVPVGKVQSLGFNPDKPAQVRISIGVAPDTPITESTWAELGVQGVTGLGNIELRDDGTSTRRLASSAAMPATIPLRPGFFQRFEQRGGEILHNVEQVSARLERLLSNENVQATTATLQNIAAITTDLRQAATELRPALAQVPPLVDSLQAMSRNTGQAAQEIAGLAQAARQALARLDAPDGPLAMATRSMRDIAWAAARLDAQTLPAVSGMASSIDSAARSATTTLRRVGDTPQSLLFGPPPTVPGPGEPGFAGFGR | failed |
| MSPGPQSGGQERGSMERKMVELEDTGLTFATEVDLERLQALAAEWLQVIGEDPGREGLLKTPERVAKAWAFLTRGYRQRLEEVVGGAVFPAEGSEMVVVKGVEFYSMCEHHLLPFFGKVHIGYIPDGKILGLSKFARIVDMFARRLQVQERLAVQIAEAIQEVLEPQGVGVVVEGVHLCMMMRGVEKQHSRTVTSAMLGVFRENQKTREEFLSHLRDGTA | not failed |
| MLTTLSCCCNMPVVKVNCWNNMKVQIKSITQWGGVLLLSFSSCYVNANKLIKPNILFIAVDDLKPLIRDYGTAKVQTPNIDKLASQSTVFTRAYSQYPVCGPSRMSILTGLRPESNGIMNLKDKIRDVNPSVITLPQFFKNNGYETAATGKIFDPRNTTSRSEEEVLSWSIPYQRPKHGLKGKTRLAVESIDEPDEKFVDGGILKRGKKLLKQMANKNKPFFLAVGFKKPHLPFVAPKKYYDLYSRESFDLASYQSAPEDADTTYLFHKNQELRGYKPTPIKGGEIKPYPKGKLSSAHQKELLHGYFASVSFIDSLVGELLEELEKTGQAENTVIVFWGDHGFHLGDHGLWGKHTTMEQANHVPLIIKIPGSKANRYAKPVELLDVFPSLTEAAGLSIPNNLQGTSLVSLVTGKLKSIDKVAISQYKRKGAYGYSMRTEQYRYTQWVTPSGKVVYRDLYDLINDPLETKNIINTPEGKLLEVELNKQLHTNSAGLKRLKLEHHHHHH | failed |
| MSDAPVCERNPFLGMWSMVTRKTASGASLGAGQAITPLEAMRCYTANPARAEGQAARKGTLSPGKLADLIVLDRDPCAVDPDEIRHTQVLATLVGGQATYRAAGAPLEHHHHHH | failed |
| MKVPKYQLIQNDLRQQIVSGKFENGDKFYTESELTKLFNVSSITVIRAVNELVKDGYLVRQQGKGTFVSRSRKGRLVEFSDIEIFPMDKDKVTVLSCEKGNKPDILEKLNLDKNEFYYKIVRVRAAEDTPYIFHNSYIPQRYIQNPDAPLEHYQSIYQRFKLDYNIHMSEEPFVETNEIVSPCPKEVATHLKLKATEPAVLQNKTTTNSTSGEVMEYTETYKHWKYYKFEITANHR | not failed |
| MVPAPEAIRQALQERLLARLDHPDPLYRDLLQDYPRRGGKMLRGLLTVYSALAHGAPLEAGLEAATALELFQNWVLVHDDIEDGSEERRGRPALHRLHPMPLALNAGDAMHAEMWGLLAEGLARGLFPPEVLLEFHEVVRRTAYGQHLDLLWTLGGTFDLRPEDYFRMVAHKAAYYTAVAPLRLGALLAGKTPPAAYEEGGLRLGTAFQIVDDVLNLEGGEAYGKERAGDLYEGKRTLILLRFLEEAPPEERARALALLALPREAKPEAEVGWLLERLLASRALAWAKAEAKRLQAEGLALLEAAFQDLPGKEALDHLRGLLAALVERRA | not failed |
| MYTPVSKSTKSNKNRSSLDKILDAKKPVNLLILGTDTGAEGRSVKNYHGLTDLMMFVTVNPSKKQTRVTTIARDSKVNLPDYPEVSPIKLNSAYSLGGVSETIKTLDKYYSVPIDGYVLVNWASTMKIITKMGGVDVISPLTFDNMGYSFKKGQMYHISGKKALAFVQLRHGDPRQDYGRQERERLVMMAAIKKSVSYKTILNSSFMQSLGDSMQTDLSLNDMIKLAMNYQGVTDNVKSDYAQGKSSSVNNQRFGNMEVEIMSTKERQRISNNIRQTLGIKNVDVYKEDNLEHHHHHH | not failed |
| MSLKITEVKAHALSTPIPERMRVESGAGLKLNRQMILVEVRTDEGVTGVGSPSGPYDLAVLKRAIEDVIGPQLIGEDPANINYLWHKVFHGEVSRNLGHRSVGIAAMSGVDIALWDLKGRAMNQPIYQLLGGKFHTRGVRAYASSIYWDLTPDQAADELAGWVEQGFTAAKLKVGRAPRKDAANLRAMRQRVGADVEILVDANQSLGRHDALAMLRILDEAGCYWFEEPLSIDDIEGHRILRAQGTPVRIATGENLYTRNAFNDYIRNDAIDVLQADASRAGGITEALAISASAASAHLAWNPHTFNDIITVAANLHLVAASPHPAMFEWDITHNDLMTRLASYDLKLENGLVQPPQGPGLGFEIDWDFVAAHAWKGEPAIGAGHGMKKEGHHHHHH | not failed |
| XRKPILAALTLAGLGLAQEFITIGSGSTTGVYFPVATGIAKLVNDANVGIRANARSTGGSVANINAINAGEFEXALAQNDIAYYAYQGCCIPAFEGKPVKTIRALAALYPEVVHVVARKDAGIRTVADLKGKRVVVGDVGSGTEQNARQILEAYGLTFDDLGQAIRVSASQGIQLXQDKRADALFYTVGLGASAIQQLALTTPIALVAVDLNRIQAIAKKYPFYVGFNIPGGTYKGVDVTTPTVAVQAXLIASERLSEETVYKFXKAVFGNLEAFKKIHPNLERFFGLEKAVKGLPIPLHPGAERFYKEAGVLK | not failed |
